Assay [1] deals with soluble form of Fas ligand (mouse (endogenous in primary Balb/cJ bone marrow-derived osteoclast cultures)).
The target is the same in assay [2]. The source holds these as a separate data set.

soluble form of Fas ligand (mouse (endogenous in primary Balb/cJ bone marrow-derived osteoclast cultures)), sequence (P41047 101-279): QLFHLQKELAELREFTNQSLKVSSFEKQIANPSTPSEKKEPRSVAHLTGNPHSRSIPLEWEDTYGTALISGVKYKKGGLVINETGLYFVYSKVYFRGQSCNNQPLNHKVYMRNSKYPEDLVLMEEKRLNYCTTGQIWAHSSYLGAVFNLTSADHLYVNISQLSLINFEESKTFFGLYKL

Turning to “Osteoprotegerin (from UniProt O08712 22-401) (receptor)”, in assay [1], the percentage of apoptotic osteoclasts (TUNEL-derived method), 24 h with OPG at 0, 20, 40, 80 ng/mL (22.7%, 34.8%, 43.5%, 51.3%) was found to be 51.3%. The concentration of soluble FasL in the osteoclast culture medium by ELISA, 24 h with OPG at 0, 20, 40, 80 ng/mL (69.44, 54.51, 41.71, 4.59 pg/mL; falls with the dose) in assay [2] amounted to 69.4 pg/mL.

The values above are taken from PMC4646684.
